Test results from the nanobody polyreactivity screen of Harvey et al. (2022).

assay: yeast display, Sf9 membrane polyspecificity reagent, FACS + sequencing; frameworks hold sequencing errors
Method in brief: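 Genes from sorted yeast were amplified by colony PCR, read by MiSeq 2 × 250 sequencing and filtered on CDR length. These cells carried a synthetic nanobody library in Saccharomyces cerevisiae BJ5465 and were sorted by FACS into low and high (top ~1%) gates on anti-HA and streptavidin fluorescence. Polyreactivity is labelled according to the gate of origin.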

Row | Sequence | polyreactivity (PSR sort gate)
1 | QLQHVESGGCLVQAGASLRLSCAASRLIFFYYAMGWSRQAPGKERELVAAIRTNYADSVKGRITSSRDNAKNTVYLQMNSQKPEDTAVYYCAAESSQSPTSAFDYWGQGTQVTVSA | low polyreactivity
2 | QVQLVESGGGLLQAGGSLRLSCAASGFTFRYYAMGWYRQAPGKERELVAAISRSGGSTYYADSVKGRFTISRDNAKNTVYLQMNSLKPEDTAVYYCAADDRYGSRYYYWGQGTQVTVTS | high polyreactivity
3 | QVQLVESGGGLVQAGGSLRLSCAASGSTFLYYAMGWYRQEPGKEREFVASISGSGGSTNYADSVKGRFTISRDNAKNTVYLQMNSLKPEDTAVYYCAKEYVTEFQGYYYWGQGTQVTVSS | low polyreactivity
4 | QVQLVESGGGLVQAGGSLRLSCAASGRIYGYTMGWYRQAPGKERELVAAITRNGGSTYYADSVKGRFTISRDNSKNSVYLQMNSLKPEDTAVYYCAARNAFGTYYYWGQGTQVTVSS | high polyreactivity
5 | QVQLVESGGGLVQAGGSLRLSCAASGSTFSQYAMGWYRQAPWKERELVAAITSTGGSTYYADSVKGRFTISRDNAKNTVYLQMNSLKPEDTAVYYCYPYIRDPKYNYWGQATQVTVSS | low polyreactivity
6 | QVQLVESGGGLVQAGGSLRLSCAASGNIFPAYAMGWYRPAPGKERELVATISRRGGGTYYADSVKGRFTISRDNAKNTVYLQMNSLKPEDTAVYYCNGAGWTSAYDYWGQGTQVTVSS | low polyreactivity
7 | QVQLVESGGGLVQAGGSLRLSCAASGRTFGWNAMGWYIQAPGKERELVAAITSGGSTSYADSVKGRFTISRDNEKNTVYLQMNCLKPEDTAVYYCAAYLGIYSRVNYWGQGTQVTVSS | low polyreactivity
8 | QVHLEESGGCLVQAGGSLRLSCAASGLFARNAMGWYRQAPGKERELVAAINRSGGSTYYADSVKGPFTISRDNAKNTVYLQMKSLKPEDTAVYYCNQAFTHTKDLSPIAYEYVFWGQGTQVTVSS | low polyreactivity
9 | QVQLVESGGGLVQAGGSLRLSCAAYGSIFGVNVMGWYRQSPGKERELVAAIDVSDTSTYYADSVKGRFTMSRDNAKNTVYLQLNSLKPDDTAVYYCAADGLRWWPFEYRFTFDYWGQGTQVTVSS | low polyreactivity
10 | QVQLVESGGGLVQAGGSLRLSCAASGYTDYAMGWYRQAPGKERELVATITSGDNTNYADSVKGRFTISRDNAKNTVYLQMNSPQPEDTAVYYCAADRIGRYRPYIGYWGQGTQVTVSS | low polyreactivity
11 | QVQLVETGGCLVQAGGSLRLSCAASGSTFYLYAMGWNRQAPGKETDLVASISQSGGSTIYADSVKGRFTISRDNAKNTVYLHMNSLKPEDTAVYYFAAGAGYFRYPRSGVWYVTLYDYWGEGTQVTVSS | high polyreactivity
12 | QVQLVESGGCLVQARGSLRLRCAASGGTFYAYAMGWYREAPGKERELVAAISRSGSTYYADSVKGRFTISRDNAKNTVYLQMNSLKPEDTAVYYCAARRARRDPVGYVYAKYVYWGQGTQVTVSS | high polyreactivity
13 | QVQLVDSGGGLVQAGGSLRLSCAASGSIFQRYAMGWYRQAPGKERELVAGINWSGGRTYYADSVKGRFTISRDNAKNTVYLQMNSLKPEDTAVYYCAAARYTRYDYWGQGTQVTVSS | high polyreactivity
14 | QDQLVESGGGLVQAGGSLRLSCAASGLTFYVNAMGWYRQAPGTERELDAAITWSGGSTHYADSVKGRFTISRDNAKNTVYLQMNSLKPEDTAVYYCGRATFQNSYVAYDYCGQGTQVTVSS | low polyreactivity
15 | QVQLVESGGGLVQAGGSLRLSCAASGLTFSVYAMGWYRQAPGKERELVASISSGGTSTYYADSVKGRFTISRDNAKNTVYLQMNSLKPEDTAVYYCAAYSYYTGDQYSYDYWGQGTQVTVSS | low polyreactivity
16 | QVQLVESGGGLVQAGGSLRLSCASSGIILYYYAMGWYRQAPGKERELVAAIDSGDSTDYADSVKGRFTISRDNAKNTVYLQMNSLKPEDTAVYYCAADSPVDEYYHWGQGTQVTVSS | low polyreactivity
